The target of test [1] is LP-48-FLAG fusion polypeptide (human LP-48 / IL-17C, mature, with the FLAG epitope fused to the native C-terminus) (human) (UniProt Q9P0M4). Description: HUVEC incubated with 5 ug/ml LP-48, then control antibodies and 125I-protein A (radioimmunoassay).
Test [2] addresses cell surface of HUVEC (human umbilical vein endothelial cells); LP-48 binding partner not identified (human). As to the kind of experiment: HUVEC incubated with 5 ug/ml LP-48; bound LP-48 detected with anti-LP-48 antibodies and 125I-protein A (radioimmunoassay).

Turning to “control antibodies to an unrelated protein (antibody)”, the 125I-Protein A Bound (CPM) in test [1] stood at 317 CPM.

B1: LP-48-FLAG fusion polypeptide (human LP-48 / IL-17C, mature, with the FLAG epitope fused to the native C-terminus) (ligand)
chain: HHDPSLRGHPHSHGTPHCYSAEELPLGQAPPHLLARGAKWGQALPVALVSSLEAASHRGRHERPSATTQCPVLRPEEVLEADTHQRSISPWRYRVDTDEDRYPQKLAFAECLCRGCIDARTGRETAALNSVRLLQSLLVLRRRPCSRDGSGLPTPGAFAFHTEFIHVPVGCTCVLPRSVDYKDDDDK
In test [2], B1 returned a 125I-Protein A Bound (CPM) of 5630 CPM.

For the origin of these results see patent US20060083713A1.
